Molecular target: T1, ubiquitin (human, UniProt P0CG48 1-76)
T1 construct: ubiquitin, human; the cut product (one ubiquitin unit) of the polyubiquitin precursor; Construct was a gift (Dr. Julie Forman-Kay); also called human ubiquitin
Assay: ITC; ubiquitin (5 mM) in the syringe, Tom1 VHS (50 uM) in the sample cell; 25 °C; 20 mM HEPES (pH 7.4), 150 mM KCl; one-site binding model; nonreducing conditions
Conditions: both partners purified

B1: Tom1 VHS domain (domain or fragment, human, UniProt O60784 20-152, looked up)
chain: ATDGSLQSEDWALNMEICDIINETEEGPKDALRAVKKRIVGNKNFHEVMLALTVLETCVKNCGHRFHVLVASQDFVESVLVRTILPKNNPPTIVHDKVLNLIQSWADAFRSSPDLTGVVTIYEDLRRKGLEFP
notes: Tom1 (target of Myb1), human, N-terminal VHS domain; measured average mass 15,708.01 Da, predicted 15.7 kDa; also called VHS domain of Tom1; target of Myb1 VHS domain; source: E. coli (Rosetta), GST fusion purified on glutathione beads, cleaved with thrombin, size-exclusion chromatography
Kd: 695 µM

Source: article PMC6659632, “Preferential phosphatidylinositol 5-phosphate binding contributes to a destabilization of the VHS domain structure of Tom1” (Scientific Reports, 2019)
